# Assay results from IntAct's records for PubMed 31515488.
# B1: Interleukin-1 receptor-associated kinase 4 (Homo sapiens), Q9NWZ3 (parent)
# chain: MNKPITPSTYVRCLNVGLIRKLSDFIDPQEGWKKLAVAIKKPSGDDRYNQFHIRRFEALLQTGKSPTSELLFDWGTTNCTVGDLVDLLIQNEFFAPASLLLPDAVPKTANTLPSKEAITVQQKQMPFCDKDRTLMTPVQNLEQSYMPPDSSSPENKSLEVSDTRFHSFSFYELKNVTNNFDERPISVGGNKMGEGGFGVVYKGYVNNTTVAVKKLAAMVDITTEELKQQFDQEIKVMAKCQHENLVELLGFSSDGDDLCLVYVYMPNGSLLDRLSCLDGTPPLSWHMRCKIAQGAANGINFLHENHHIHRDIKSANILLDEAFTAKISDFGLARASEKFAQTVMTSRIVGTTAYMAPEALRGEITPKSDIYSFGVVLLEIITGLPAVDEHREPQLLLDIKEEIEDEEKTIEDYIDKKMNDADSTSVEAMYSVASQCLHEKKNKRPDIKKVQQLLQEMTAS
# B2: Protein mab-21-like 3 (Homo sapiens), Q8N8X9 (parent)
# chain: MKYLTVGDLEDCLLNKVDLRRQQISQAVEEVQKVVHHLTTNISNQDIRFQAVPYSDTYNENIKVLAPSQFLVTVPIKGLAGYREAREQHWRYYTLQGTRLPCPLRDPEGLQQWLEVEQFMKSLWQWHETDVNIDGDIVPAKVLLVFRKLVENAVRTCHLSGKVSLLGNRSAVWVAVETSAYQVELELVPAVEIPTTWSKKARWPRCLQRWPSQERVECIKSFGFNLLACSNYHWQLSFLRAEQVLLEQLDEDGGCRRKCFQVMRHLKEDIWCPGNRPVITSHHLQTVLFWTCEKYPHFKDWQVFSKAFLRLVRKLHKCVSQHFLKHYFVRNSNLFQCTNPTELDTVAQKLATFLKNPQIGPP
# partner: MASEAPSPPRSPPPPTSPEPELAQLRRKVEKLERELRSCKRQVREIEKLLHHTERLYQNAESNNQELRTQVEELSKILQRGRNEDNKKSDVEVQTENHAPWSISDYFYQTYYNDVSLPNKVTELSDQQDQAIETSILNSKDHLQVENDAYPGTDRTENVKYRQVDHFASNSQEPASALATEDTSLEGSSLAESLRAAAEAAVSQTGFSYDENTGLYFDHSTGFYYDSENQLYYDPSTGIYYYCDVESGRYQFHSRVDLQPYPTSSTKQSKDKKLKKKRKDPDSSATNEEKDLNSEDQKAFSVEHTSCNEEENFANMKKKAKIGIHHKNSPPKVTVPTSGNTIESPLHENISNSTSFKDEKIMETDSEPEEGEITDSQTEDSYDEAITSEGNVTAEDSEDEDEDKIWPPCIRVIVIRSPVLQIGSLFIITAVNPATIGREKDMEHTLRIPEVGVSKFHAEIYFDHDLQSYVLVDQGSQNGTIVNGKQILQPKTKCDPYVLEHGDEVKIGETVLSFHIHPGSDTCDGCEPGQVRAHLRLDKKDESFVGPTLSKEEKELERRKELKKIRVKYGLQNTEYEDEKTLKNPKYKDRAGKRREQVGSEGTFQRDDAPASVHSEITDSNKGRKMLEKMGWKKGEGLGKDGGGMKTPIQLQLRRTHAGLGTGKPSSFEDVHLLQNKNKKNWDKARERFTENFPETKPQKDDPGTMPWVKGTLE
# B3: Keratin, type II cuticular Hb6 (Homo sapiens), O43790 (parent)
# chain: MTCGSYCGGRAFSCISACGPRPGRCCITAAPYRGISCYRGLTGGFGSHSVCGGFRAGSCGRSFGYRSGGVCGPSPPCITTVSVNESLLTPLNLEIDPNAQCVKQEEKEQIKSLNSRFAAFIDKVRFLEQQNKLLETKLQFYQNRECCQSNLEPLFEGYIETLRREAECVEADSGRLASELNHVQEVLEGYKKKYEEEVSLRATAENEFVALKKDVDCAYLRKSDLEANVEALIQEIDFLRRLYEEEIRVLQSHISDTSVVVKLDNSRDLNMDCIIAEIKAQYDDIVTRSRAEAESWYRSKCEEMKATVIRHGETLRRTKEEINELNRMIQRLTAEVENAKCQNSKLEAAVAQSEQQGEAALSDARCKLAELEGALQKAKQDMACLIREYQEVMNSKLGLDIEIATYRRLLEGEEQRLCEGVGSVNVCVSSSRGGVVCGDLCASTTAPVVSTRVSSVPSNSNVVVGTTNACAPSARVGVCGGSCKRC
# B4: Protein SSX5 (Homo sapiens), O60225 (parent)
# chain: MNGDDAFVRRPRVGSQIPEKMQKAFDDIAKYFSEKEWEKMKASEKIIYVYMKRKYEAMTKLGFKATLPPFMRNKRVADFQGNDFDNDPNRGNQVEHPQMTFGRLQGIFPKITPEKPAEEGNDSKGVPEASGPQNNGKQLRPSGKLNTSEKVNKTSGPKRGKHAWTHRVRERKQLVIYEEISDPQEDDE
# B5: Keratin, type II cytoskeletal 6A (Homo sapiens), P02538 (parent)
# chain: MASTSTTIRSHSSSRRGFSANSARLPGVSRSGFSSVSVSRSRGSGGLGGACGGAGFGSRSLYGLGGSKRISIGGGSCAISGGYGSRAGGSYGFGGAGSGFGFGGGAGIGFGLGGGAGLAGGFGGPGFPVCPPGGIQEVTVNQSLLTPLNLQIDPTIQRVRAEEREQIKTLNNKFASFIDKVRFLEQQNKVLETKWTLLQEQGTKTVRQNLEPLFEQYINNLRRQLDSIVGERGRLDSELRGMQDLVEDFKNKYEDEINKRTAAENEFVTLKKDVDAAYMNKVELQAKADTLTDEINFLRALYDAELSQMQTHISDTSVVLSMDNNRNLDLDSIIAEVKAQYEEIAQRSRAEAESWYQTKYEELQVTAGRHGDDLRNTKQEIAEINRMIQRLRSEIDHVKKQCANLQAAIADAEQRGEMALKDAKNKLEGLEDALQKAKQDLARLLKEYQELMNVKLALDVEIATYRKLLEGEECRLNGEGVGQVNISVVQSTVSSGYGGASGVGSGLGLGGGSSYSYGSGLGVGGGFSSSSGRAIGGGLSSVGGGSSTIKYTTTSSSSRKSYKH
# partner: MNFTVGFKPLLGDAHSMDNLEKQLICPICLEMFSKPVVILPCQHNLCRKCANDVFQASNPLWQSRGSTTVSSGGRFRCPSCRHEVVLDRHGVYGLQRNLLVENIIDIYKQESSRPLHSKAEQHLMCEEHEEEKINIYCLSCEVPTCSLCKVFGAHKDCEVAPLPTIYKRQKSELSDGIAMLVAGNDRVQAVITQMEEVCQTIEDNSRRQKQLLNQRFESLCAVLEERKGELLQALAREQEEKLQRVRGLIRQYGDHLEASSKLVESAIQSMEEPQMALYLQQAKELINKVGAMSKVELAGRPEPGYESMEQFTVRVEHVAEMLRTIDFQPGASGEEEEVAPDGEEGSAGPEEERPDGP
# Variants of: B1
# Conditions: with myd88_human MYD88, Q99836
# Chain of myd88_human MYD88, Q99836 (Q99836 whole entry): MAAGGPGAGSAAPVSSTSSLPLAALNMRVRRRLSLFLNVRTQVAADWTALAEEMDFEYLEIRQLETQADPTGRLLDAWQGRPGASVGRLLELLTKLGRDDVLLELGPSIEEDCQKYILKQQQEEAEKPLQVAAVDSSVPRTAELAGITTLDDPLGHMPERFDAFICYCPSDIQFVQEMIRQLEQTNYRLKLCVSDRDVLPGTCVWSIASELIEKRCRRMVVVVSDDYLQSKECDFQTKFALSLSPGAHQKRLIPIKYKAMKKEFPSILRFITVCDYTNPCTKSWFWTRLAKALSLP
row,effect of a mutation on the interaction,Variant
1,with no effect,R391H
2,with no effect,A428T

# Further lines, the variant ahead of its results:
row,Variant,effect of a mutation on the interaction
1,R12C,disrupting interaction strength
2,R12H,disrupting interaction strength
3,D73E,disrupting interaction strength
4,G298D,disrupting interaction strength
5,R20W,with no effect
6,T76I,disrupting interaction strength

# Variants of: B2
# Conditions: with aggf1_human AGGF1, Q8N302
row,effect of a mutation on the interaction,Variant
1,with no effect,T338A

# Variants of: B3
# Conditions: with KRT15, P19012
# Chain of KRT15, P19012 (P19012 whole entry): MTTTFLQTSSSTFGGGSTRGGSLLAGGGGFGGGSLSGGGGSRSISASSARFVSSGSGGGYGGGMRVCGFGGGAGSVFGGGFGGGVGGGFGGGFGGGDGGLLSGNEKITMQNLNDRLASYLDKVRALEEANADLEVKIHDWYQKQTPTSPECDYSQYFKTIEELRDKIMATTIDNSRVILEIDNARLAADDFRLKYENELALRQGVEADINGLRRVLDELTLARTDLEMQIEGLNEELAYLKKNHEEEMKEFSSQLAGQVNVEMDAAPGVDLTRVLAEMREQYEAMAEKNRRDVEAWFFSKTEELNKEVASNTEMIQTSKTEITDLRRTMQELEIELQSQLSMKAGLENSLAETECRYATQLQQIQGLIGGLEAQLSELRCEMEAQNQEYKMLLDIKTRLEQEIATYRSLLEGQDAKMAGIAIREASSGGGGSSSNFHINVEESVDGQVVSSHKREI
row,effect of a mutation on the interaction,Variant
1,with no effect,R327C
2,with no effect,R408H

# Variants of: B4
# Conditions: with atrap_human AGTRAP
row,effect of a mutation on the interaction,Variant
1,with no effect,K20N

# Variants of: B5
# Conditions: with tri54_human TRIM54, Q9BYV2
row,effect of a mutation on the interaction,Variant
1,with no effect,R415H
2,with no effect,T552S
3,with no effect,V523F
4,with no effect,A335T
